Source: PMC11544209

Target: T1, PsCas9 WT (UniProt PDB:8UMF_1 1-1462)
T1 sequence: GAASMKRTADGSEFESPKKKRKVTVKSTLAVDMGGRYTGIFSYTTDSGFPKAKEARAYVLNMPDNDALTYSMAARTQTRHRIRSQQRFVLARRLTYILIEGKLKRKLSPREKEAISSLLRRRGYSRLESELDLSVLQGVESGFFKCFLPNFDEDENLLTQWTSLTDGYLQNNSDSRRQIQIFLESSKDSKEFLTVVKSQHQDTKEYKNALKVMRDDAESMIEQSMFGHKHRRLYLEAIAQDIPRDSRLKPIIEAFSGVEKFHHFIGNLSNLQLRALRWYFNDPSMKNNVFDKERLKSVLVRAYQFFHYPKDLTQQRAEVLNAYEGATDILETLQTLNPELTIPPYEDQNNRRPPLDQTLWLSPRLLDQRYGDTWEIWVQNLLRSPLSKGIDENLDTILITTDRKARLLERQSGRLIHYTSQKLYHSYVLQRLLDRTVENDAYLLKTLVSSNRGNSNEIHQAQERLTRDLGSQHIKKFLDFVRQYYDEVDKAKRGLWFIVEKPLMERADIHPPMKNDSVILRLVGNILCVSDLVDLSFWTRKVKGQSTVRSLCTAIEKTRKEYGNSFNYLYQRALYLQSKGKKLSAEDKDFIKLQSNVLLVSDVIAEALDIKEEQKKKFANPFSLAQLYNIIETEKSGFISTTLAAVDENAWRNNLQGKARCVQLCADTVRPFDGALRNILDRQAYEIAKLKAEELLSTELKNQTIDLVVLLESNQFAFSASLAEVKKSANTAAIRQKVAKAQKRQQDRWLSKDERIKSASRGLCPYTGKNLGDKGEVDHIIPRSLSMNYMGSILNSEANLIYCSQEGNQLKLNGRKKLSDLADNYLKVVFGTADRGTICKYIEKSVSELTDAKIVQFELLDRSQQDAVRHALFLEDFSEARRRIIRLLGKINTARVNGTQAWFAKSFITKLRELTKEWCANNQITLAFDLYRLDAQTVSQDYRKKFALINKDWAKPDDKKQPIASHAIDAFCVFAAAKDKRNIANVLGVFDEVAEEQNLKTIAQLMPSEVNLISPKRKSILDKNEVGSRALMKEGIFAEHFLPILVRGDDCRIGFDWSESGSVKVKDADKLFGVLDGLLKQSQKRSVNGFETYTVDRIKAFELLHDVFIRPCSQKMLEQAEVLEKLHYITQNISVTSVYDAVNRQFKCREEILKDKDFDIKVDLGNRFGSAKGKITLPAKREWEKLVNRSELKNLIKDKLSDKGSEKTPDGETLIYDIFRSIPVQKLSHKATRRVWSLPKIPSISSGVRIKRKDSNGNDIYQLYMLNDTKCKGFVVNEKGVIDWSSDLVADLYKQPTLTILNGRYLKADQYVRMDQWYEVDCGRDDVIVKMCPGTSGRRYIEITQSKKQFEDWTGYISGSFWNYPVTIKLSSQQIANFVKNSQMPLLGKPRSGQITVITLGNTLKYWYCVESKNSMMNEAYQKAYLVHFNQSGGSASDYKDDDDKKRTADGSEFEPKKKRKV
Assay: fluorescence polarization

B1: EMX1a 38 bp target + PsCas9 original EMX1a sgRNA (mixed)
DNA 1: TGTATGTCACCTCCAATGACTAGGGTGGTACACAAACA
DNA 2: TGTTTGTGTACCACCCTAGTCATTGGAGGTGACATACA
Binder B1 has a Kd of about 112 nM.
